Test results from US12534531 (MacroGenics, dated 2026).

What was measured:
[1] = target: T1, human LAG-3 expressed on NSO cells (human, UniProt P18627 29-525); assay: FACS saturation binding to NSO cells expressing LAG-3; SM; SD 0.5770
T1 sequence: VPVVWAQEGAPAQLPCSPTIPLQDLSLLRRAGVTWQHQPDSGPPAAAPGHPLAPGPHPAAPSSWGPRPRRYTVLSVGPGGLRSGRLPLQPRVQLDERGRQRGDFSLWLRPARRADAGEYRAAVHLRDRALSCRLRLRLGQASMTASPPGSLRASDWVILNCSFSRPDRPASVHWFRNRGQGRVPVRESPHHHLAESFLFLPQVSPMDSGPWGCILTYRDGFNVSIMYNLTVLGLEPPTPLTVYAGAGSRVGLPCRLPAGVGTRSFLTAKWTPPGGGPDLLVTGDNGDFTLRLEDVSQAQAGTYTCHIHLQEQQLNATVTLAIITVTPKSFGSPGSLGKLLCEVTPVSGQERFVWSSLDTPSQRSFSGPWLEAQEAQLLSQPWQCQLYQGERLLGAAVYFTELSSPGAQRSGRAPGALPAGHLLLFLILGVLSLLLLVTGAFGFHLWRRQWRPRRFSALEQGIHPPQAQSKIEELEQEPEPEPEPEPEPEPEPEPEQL

[2] = target: T2, biotinylated-soluble human LAG-3-Fc fusion protein (human, UniProt P18627 23-450, biotinylated (site not stated)); assay: FACS: inhibition of shLAG-3-Fc binding to MHC II on Daudi cells (column head prints EC50); SM; SD 1.2674
T2 construct: whole entry named; also called shLAG-3; shLAG-3-Fc; not shown: Fc
T2 sequence: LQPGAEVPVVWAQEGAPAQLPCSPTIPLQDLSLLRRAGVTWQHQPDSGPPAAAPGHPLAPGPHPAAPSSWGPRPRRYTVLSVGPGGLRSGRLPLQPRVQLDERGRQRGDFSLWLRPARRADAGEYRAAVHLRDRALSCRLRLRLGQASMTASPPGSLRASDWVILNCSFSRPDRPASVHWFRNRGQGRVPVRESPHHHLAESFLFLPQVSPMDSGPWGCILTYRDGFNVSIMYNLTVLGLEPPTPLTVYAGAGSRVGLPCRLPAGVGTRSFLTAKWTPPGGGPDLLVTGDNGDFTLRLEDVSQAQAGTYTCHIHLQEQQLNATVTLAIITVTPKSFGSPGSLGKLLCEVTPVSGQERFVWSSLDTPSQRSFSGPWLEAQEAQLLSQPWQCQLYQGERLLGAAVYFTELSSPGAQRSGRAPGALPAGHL

[3] = target: T3, human PD-1 expressed on the surface of cells (NSO cells expressing human PD-1; MNFAT-luc2/PD-1 Jurkat cells) (human, UniProt Q15116 21-288); assay: FACS: inhibition of sPD-L1 binding to PD-1 on NSO cells; SM; SD 0.1729
T3 construct: also called cell surface PD-1; PDCD1 transfected NSO cells expressing PD-1
T3 sequence (Q15116 21-288): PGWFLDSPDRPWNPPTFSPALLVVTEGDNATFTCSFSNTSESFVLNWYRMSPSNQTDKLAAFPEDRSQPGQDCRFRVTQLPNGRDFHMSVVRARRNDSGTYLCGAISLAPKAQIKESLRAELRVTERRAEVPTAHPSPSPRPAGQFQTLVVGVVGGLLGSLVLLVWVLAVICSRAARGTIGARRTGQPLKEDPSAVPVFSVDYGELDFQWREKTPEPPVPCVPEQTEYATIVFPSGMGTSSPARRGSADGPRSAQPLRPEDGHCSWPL

[4] = target: T3, human PD-1 expressed on the surface of …; assay: FACS saturation binding to NSO cells expressing PD-1; single experiment
[5] = target: T3, human PD-1 expressed on the surface of …; assay: FACS: inhibition of sPD-L2 binding to PD-1 on NSO cells; SM; SD 0.0846
[6] = target: T2, biotinylated-soluble human LAG-3-Fc …; assay: FACS: inhibition of shLAG-3-Fc binding to MHC II on Daudi cells (column head prints EC50); SM; SD 3.3552
[7] = target: T1, human LAG-3 expressed on NSO cells; assay: FACS saturation binding to NSO cells expressing LAG-3; SM; SD 0.3045
[8] = target: T3, human PD-1 expressed on the surface of …; assay: FACS: inhibition of sPD-L1 binding to PD-1 on NSO cells; SM; SD 0.3581
[9] = target: T3, human PD-1 expressed on the surface of …; assay: FACS: inhibition of sPD-L2 binding to PD-1 on NSO cells; SM; SD 0.7891
[10] = target: T3, human PD-1 expressed on the surface of …; assay: FACS saturation binding to NSO cells expressing PD-1; SM; SD 0.6227

Binder	EC50 [1]	IC50 [2]	IC50 [3]	EC50 [4]	EC90 [4]	IC50 [5]	IC50 [6]	EC50 [7]	IC50 [8]	IC50 [9]	EC50 [10]
DART F (bispecific antibody, human IgG1, kappa, L234A L235A) chain 1: QVQLVQSGAEVKKPGASVKVSCKASGYSFTSYWMNWVRQAPGQGLEWIGVIHPSDSETWLDQKFKDRVTITVDKSTSTAYMELSSLRSEDTAVYYCAREHYGTSPFAYWGQGTLVTVSSASTKGPSVFPLAPSSKSTSGGTAALGCLVKDYFPEPVTVSWNSGALTSGVHTFPAVLQSSGLYSLSSVVTVPSSSLGTQTYICNVNHKPSNTKVDKRVEPKSCDKTHTCPPCPAPEAAGGPSVFLFPPKPKDTLYITREPEVTCVVVDVSHEDPEVKFNWYVDGVEVHNAKTKPREEQYNSTYRVVSVLTVLHQDWLNGKEYKCKVSNKALPAPIEKTISKAKGQPREPQVYTLPPSREEMTKNQVSLSCAVKGFYPSDIAVEWESNGQPENNYKTTPPVLDSDGSFFLVSKLTVDKSRWQQGNVFSCSVMHEALHAKYTQKSLSLSPG chain 2: EIVLTQSPATLSLSPGERATLSCRASESVDNYGMSFMNWFQQKPGQPPKLLIHAASNQGSGVPSRFSGSGSGTDFTLTISSLEPEDFAVYFCQQSKEVPYTFGGGTKVEIKRTVAAPSVFIFPPSDEQLKSGTASVVCLLNNFYPREAKVQWKVDNALQSGNSQESVTEQDSKDSTYSLSSTLTLSKADYEKHKVYACEVTHQGLSSPVTKSFNRGEC chain 3: QVQLVQSGAEVKKPGASVKVSCKASGYSFTSYWMNWVRQAPGQGLEWIGVIHPSDSETWLDQKFKDRVTITVDKSTSTAYMELSSLRSEDTAVYYCAREHYGTSPFAYWGQGTLVTVSSASTKGPSVFPLAPSSKSTSGGTAALGCLVKDYFPEPVTVSWNSGALTSGVHTFPAVLQSSGLYSLSSVVTVPSSSLGTQTYICNVNHKPSNTKVDKRVEPKSCDKTHTCPPCPAPEAAGGPSVFLFPPKPKDTLYITREPEVTCVVVDVSHEDPEVKFNWYVDGVEVHNAKTKPREEQYNSTYRVVSVLTVLHQDWLNGKEYKCKVSNKALPAPIEKTISKAKGQPREPQVYTLPPSREEMTKNQVSLWCLVKGFYPSDIAVEWESNGQPENNYKTTPPVLDSDGSFFLYSKLTVDKSRWQQGNVFSCSVMHEALHNHYTQKSLSLSPGGGGSGGGSGGGDIVMTQTPLSLSVTPGQPASISCKSSQSLLHSDAKTYLNWLLQKPGQPPERLIYLVSELDSGVPDRFSGSGSGTDFTLKISRVEAEDVGVYYCWQGTHFPYTFGGGTKVEIKGGGSGGGGQVQLVQSGAEVKKPGASVKVSCKASGYSFTSYWMNWVRQAPGQGLEWIGVIHPSDSETWLDQKFKDRVTITVDKSTSTAYMELSSLRSEDTAVYYCAREHYGTSPFAYWGQGTLVTVSSGGCGGGEVAALEKEVAALEKEVAALEKEVAALEK chain 4: EIVLTQSPATLSLSPGERATLSCRASESVDNYGMSFMNWFQQKPGQPPKLLIHAASNQGSGVPSRFSGSGSGTDFTLTISSLEPEDFAVYFCQQSKEVPYTFGGGTKVEIKGGGSGGGGQVQLVQSGAEVKKPGASVKVSCKASGYTFTNYGMNWVRQAPGQGLEWMGWINTYTGESTYADDFEGRFVFSMDTSASTAYLQISSLKAEDTAVYYCARESLYDYYSMDYWGQGTTVTVSSGGCGGGKVAALKEKVAALKEKVAALKEKVAALKE	5010 nM	1530 nM	570 nM	1430 nM	14600 nM	839 nM					
DART G (bispecific antibody, human IgG1, kappa, L234A L235A) chain 1: QVQLVQSGAEVKKPGASVKVSCKASGYTFTNYGMNWVRQAPGQGLEWMGWINTYTGESTYADDFEGRFVFSMDTSASTAYLQISSLKAEDTAVYYCARESLYDYYSMDYWGQGTTVTVSSASTKGPSVFPLAPSSKSTSGGTAALGCLVKDYFPEPVTVSWNSGALTSGVHTFPAVLQSSGLYSLSSVVTVPSSSLGTQTYICNVNHKPSNTKVDKRVEPKSCDKTHTCPPCPAPEAAGGPSVFLFPPKPKDTLYITREPEVTCVVVDVSHEDPEVKFNWYVDGVEVHNAKTKPREEQYNSTYRVVSVLTVLHQDWLNGKEYKCKVSNKALPAPIEKTISKAKGQPREPQVYTLPPSREEMTKNQVSLSCAVKGFYPSDIAVEWESNGQPENNYKTTPPVLDSDGSFFLVSKLTVDKSRWQQGNVFSCSVMHEALHAKYTQKSLSLSPG chain 2: DIVMTQTPLSLSVTPGQPASISCKSSQSLLHSDAKTYLNWLLQKPGQPPERLIYLVSELDSGVPDRFSGSGSGTDFTLKISRVEAEDVGVYYCWQGTHFPYTFGGGTKVEIKRTVAAPSVFIFPPSDEQLKSGTASVVCLLNNFYPREAKVQWKVDNALQSGNSQESVTEQDSKDSTYSLSSTLTLSKADYEKHKVYACEVTHQGLSSPVTKSFNRGEC chain 3: QVQLVQSGAEVKKPGASVKVSCKASGYTFTNYGMNWVRQAPGQGLEWMGWINTYTGESTYADDFEGRFVFSMDTSASTAYLQISSLKAEDTAVYYCARESLYDYYSMDYWGQGTTVTVSSASTKGPSVFPLAPSSKSTSGGTAALGCLVKDYFPEPVTVSWNSGALTSGVHTFPAVLQSSGLYSLSSVVTVPSSSLGTQTYICNVNHKPSNTKVDKRVEPKSCDKTHTCPPCPAPEAAGGPSVFLFPPKPKDTLYITREPEVTCVVVDVSHEDPEVKFNWYVDGVEVHNAKTKPREEQYNSTYRVVSVLTVLHQDWLNGKEYKCKVSNKALPAPIEKTISKAKGQPREPQVYTLPPSREEMTKNQVSLWCLVKGFYPSDIAVEWESNGQPENNYKTTPPVLDSDGSFFLYSKLTVDKSRWQQGNVFSCSVMHEALHNHYTQKSLSLSPGGGGSGGGSGGGEIVLTQSPATLSLSPGERATLSCRASESVDNYGMSFMNWFQQKPGQPPKLLIHAASNQGSGVPSRFSGSGSGTDFTLTISSLEPEDFAVYFCQQSKEVPYTFGGGTKVEIKGGGSGGGGQVQLVQSGAEVKKPGASVKVSCKASGYSFTSYWMNWVRQAPGQGLEWIGVIHPSDSETWLDQKFKDRVTITVDKSTSTAYMELSSLRSEDTAVYYCAREHYGTSPFAYWGQGTLVTVSSGGCGGGEVAALEKEVAALEKEVAALEKEVAALEK chain 4: EIVLTQSPATLSLSPGERATLSCRASESVDNYGMSFMNWFQQKPGQPPKLLIHAASNQGSGVPSRFSGSGSGTDFTLTISSLEPEDFAVYFCQQSKEVPYTFGGGTKVEIKGGGSGGGGQVQLVQSGAEVKKPGASVKVSCKASGYSFTSYWMNWVRQAPGQGLEWIGVIHPSDSETWLDQKFKDRVTITVDKSTSTAYMELSSLRSEDTAVYYCAREHYGTSPFAYWGQGTLVTVSSGGCGGGKVAALKEKVAALKEKVAALKEKVAALKE							2060 nM	940 nM	1600 nM	2550 nM	1150 nM
